The assay addresses B61/B51 (on B61/B51-matched allogeneic LCL). Kind of assay: cell-based or functional assay.

B1: hepsin peptide 48-84 (residues 48-84 of hepsin) (peptide)
peptide: QEPLYPVQVSSADARLMVFDKTEGTWRLLCSSRSNAR
As for B1, the Percent cell killing; B61/B51-matched allogeneic LCL + peptide; CD8+ T cells of donor was determined as 27.1%.

These data come from US20080152663A1.
